From publication PMC10579536 (Research and Practice in Thrombosis and Haemostasis, 2023)
Read-outs that look alike come from different tables or passages of the source. Values belong to the molecule of their own block, whether it stands above or below them.

B1: Recombinant human angiopoietin-1 (ligand, UniProt Q15389 16-498, looked up)
chain: HIGCSNQRRSPENSGRRYNRIQHGQCAYTFILPEHDGNCRESTTDQYNTNALQRDAPHVEPDFSSQKLQHLEHVMENYTQWLQKLENYIVENMKSEMAQIQQNAVQNHTATMLEIGTSLLSQTAEQTRKLTDVETQVLNQTSRLEIQLLENSLSTYKLEKQLLQQTNEILKIHEKNSLLEHKILEMEGKHKEELDTLKEEKENLQGLVTRQTYIIQELEKQLNRATTNNSVLQKQQLELMDTVHNLVNLCTKEGVLLKGGKREEEKPFRDCADVYQAGFNKSGIYTIYINNMPEPKKVFCNMDVNGGGWTVIQHREDGSLDFQRGWKEYKMGFGNPSGEYWLGNEFIFAITSQRQYMLRIELMDWEGNRAYSQYDRFHIGNEKQNYRLYLKGHTGTAGKQSSLILHGADFSTKDADNDNCMCKCALMLTGGWWFDACGPSNLNGMFYTAGQNHGKLNGIKWHYFKGPSYSLRSTTMMIRPLDF
B2: Recombinant human angiopoietin-2 (ligand, UniProt O15123 19-496, looked up)
chain: YNNFRKSMDSIGKKQYQVQHGSCSYTFLLPEMDNCRSSSSPYVSNAVQRDAPLEYDDSVQRLQVLENIMENNTQWLMKLENYIQDNMKKEMVEIQQNAVQNQTAVMIEIGTNLLNQTAEQTRKLTDVEAQVLNQTTRLELQLLEHSLSTNKLEKQILDQTSEINKLQDKNSFLEKKVLAMEDKHIIQLQSIKEEKDQLQVLVSKQNSIIEELEKKIVTATVNNSVLQKQQHDLMETVNNLLTMMSTSNSAKDPTVAKEEQISFRDCAEVFKSGHTTNGIYTLTFPNSTEEIKAYCDMEAGGGGWTIIQRREDGSVDFQRTWKEYKVGFGNPSGEYWLGNEFVSQLTNQQRYVLKIHLKDWEGNEAYSLYEHFYLSSEELNYRIHLKGLTGTAGKISSISQPGNDFSTKDGDNDKCICKCSQMLTGGWWFDACGPSNLNGMYYPQRQNTNKFNGIKWYYWKGSGYSLKATTMMIRPADF
B3: Recombinant VWF A2 domain fused to Fc (Fc fusion)
chain: PGLLGVSTLGPKRNSMVLDVAFVLEGSDKIGEADFNRSKEFMEEVIQRMDVGQDSIHVTVLQYSYMVTVEYPFSEAQSKGDILQRVREIRYQGGNRTNTGLALRYLSDHSFLVSQGDREQAPNLVYMVTGNPASDEIKRLPGDIQVVPIGVGPNANVQELERIGWPNAPILIQDFETLPREAPDLVLQRCCSG
B4: Tie-2/Fc (Fc fusion, human, UniProt Q02763 23-748, looked up)
chain: AMDLILINSLPLVSDAETSLTCIASGWRPHEPITIGRDFEALMNQHQDPLEVTQDVTREWAKKVVWKREKASKINGAYFCEGRVRGEAIRIRTMKMRQQASFLPATLTMTVDKGDNVNISFKKVLIKEEDAVIYKNGSFIHSVPRHEVPDILEVHLPHAQPQDAGVYSARYIGGNLFTSAFTRLIVRRCEAQKWGPECNHLCTACMNNGVCHEDTGECICPPGFMGRTCEKACELHTFGRTCKERCSGQEGCKSYVFCLPDPYGCSCATGWKGLQCNEACHPGFYGPDCKLRCSCNNGEMCDRFQGCLCSPGWQGLQCEREGIQRMTPKIVDLPDHIEVNSGKFNPICKASGWPLPTNEEMTLVKPDGTVLHPKDFNHTDHFSVAIFTIHRILPPDSGVWVCSVNTVAGMVEKPFNISVKVLPKPLNAPNVIDTGHNFAVINISSEPYFGDGPIKSKKLLYKPVNHYEAWQHIQVTNEIVTLNYLEPRTEYELCVQLVRRGEGGEGHPGPVRRFTTASIGLPPPRGLNLLPKSQTTLNLTWQPIFPSSEDDFYVEVERRSVQKSDQQNIKVPGNLTSVLLNNLHPREQYVVRARVNTKAQGEWSEDLTAWTLSDILPPQPENIKISNITHSSAVISWTILDGYSISSITIRYKVQGKNEDQHVDVKIKNATITQYQLKGLEPETAYQVDIFAENNIGSSNPAFSHELVTLPESQAPADLGGGKMLL
B5: Recombinant VWF D4 domain fused to Fc (Fc fusion)
chain: PCVCTGSSTRHIVTFDGQNFKLTGSCSYVLFQNKEQDLEVILHNGACSPGARQGCMKSIEVKHSALSVELHSDMEVTVNGRLVSVPYVGGNMEVNVYGAIMHEVRFNHLGHIFTFTPQNNEFQLQLSPKTFASKTYGLCGICDENGANDFMLRDGTVTTDWKTLVQEWTVQRPGQTCQPILEEQCLVPDSSHCQVLLLPLFAECHKVLAPATFYAICQQDSCHQEQVCEVIASYAHLCRTNGVCVDWRTPDFCAMSCPPSLVYNHCEHGCPRHCDGNVSSCGDHPSEGCFCPPDKVMLEGSCVPEEACTQCIGEDGVQHQFLEAWVPDHQPCQICTCLSGRKVNCTTQPCPT

Legend:
Experiment in all cases: ELISA
[1] = molecular target: Recombinant VWF fragment D’-D3-HPC4
[2] = molecular target: Recombinant human angiopoietin-2 (human) (UniProt O15123)
Tie-2/Fc = molecular target: B4
[3] = molecular target: von Willebrand factor (plasma-derived) (human (endogenous in plasma), UniProt P04275 764-2813)
[4] = molecular target: B2
[5] = molecular target: B1
[6] = molecular target: B2; remark: listed apart in the source

maximal percent inhibition of binding to Ang-2 [1]: 77%
Molecule: Recombinant FVIII (from UniProt P00451 20-2351) (natural protein)

EC50 [2]: 159 nM
Molecule: Recombinant VWF fragment D’-D3-HPC4 (domain or fragment)

Molecule: B1
binding result (Tie-2/Fc): binds

Molecule: B2
binding result (Tie-2/Fc): binds
EC50 [3]: 5.3 ± 1 nM

Molecule: B3
EC50 [4]: 36.7 ± 9.7 nM

Molecule: B4
EC50 [5]: 0.2 ± 0.1 nM
EC50 [6]: 0.2 ± 0.1 nM

Molecule: B5
EC50 [4]: 18 ± 6 nM
